Reference: the supplement of paper PMC9112550, “Optimization of the antimicrobial peptide Bac7 by deep mutational scanning” (BMC Biology, 2022)

Tested on: Escherichia coli TOP10
Assay: shrunken log2 fold change of peptide-encoding DNA abundance (4.5 h post-induction vs induction); higher = less antimicrobial activity (less host growth inhibition)
Details: time post-induction: 4.5 h; library: site-saturation at positions 5, 18, 19, 20
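Note: peptides expressed intracellularly from a pBAD plasmid library in pooled LB shake-flask culture, induced with 0.3% L-arabinose, DNA abundance read by NGS, three biological replicates, DESeq2 with apeglm shrinkage.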

Sequence	shrunken log2 fold change
RRIRNRPPRLPRPRPRPCLLPRP	-0.414
RRIRSRPPRLPRPRPRPWIWPRP	0.341
RRIRHRPPRLPRPRPRPAEDPRP	0.262
RRIRGRPPRLPRPRPRPEGLPRP	1.06
RRIRYRPPRLPRPRPRPYDAPRP	-0.129
RRIRKRPPRLPRPRPRPICDPRP	0.0999
RRIRDRPPRLPRPRPRPRDHPRP	0.0411
RRIRYRPPRLPRPRPRPVMAPRP	-0.335
RRIRIRPPRLPRPRPRPIMMPRP	-0.132
RRIRDRPPRLPRPRPRPTCVPRP	0.346
RRIRRRPPRLPRPRPRPQKYPRP	-0.696
RRIRLRPPRLPRPRPRPKPFPRP	2.21
RRIRIRPPRLPRPRPRPPNVPRP	0.0421
RRIRRRPPRLPRPRPRPYQNPRP	-0.74
RRIRTRPPRLPRPRPRPIQCPRP	-0.521
RRIRCRPPRLPRPRPRPAPIPRP	1.74
RRIRHRPPRLPRPRPRPCTGPRP	0.00233
RRIRPRPPRLPRPRPRPLDPPRP	0.201
RRIRARPPRLPRPRPRPEKNPRP	0.538
RRIRFRPPRLPRPRPRPMVYPRP	-0.389
RRIRRRPPRLPRPRPRPYVMPRP	-0.882
RRIRPRPPRLPRPRPRPPRHPRP	0.278
RRIRNRPPRLPRPRPRPMEPPRP	-0.0573
RRIRLRPPRLPRPRPRPMFHPRP	-0.681
RRIRMRPPRLPRPRPRPVCFPRP	0.126

Sequence	shrunken log2 fold change
RRIRARPPRLPRPRPRPESHPRP	1.04
RRIRSRPPRLPRPRPRPNAEPRP	0.572
RRIRTRPPRLPRPRPRPHNPPRP	-0.385
RRIRYRPPRLPRPRPRPHDHPRP	1.33
RRIRWRPPRLPRPRPRPIEPPRP	0.0341
RRIRVRPPRLPRPRPRPYRRPRP	-0.0654
RRIRMRPPRLPRPRPRPNANPRP	0.777
RRIRARPPRLPRPRPRPNLPPRP	0.158
RRIRDRPPRLPRPRPRPGMLPRP	-0.0263
RRIRSRPPRLPRPRPRPTPPPRP	0.43
RRIRYRPPRLPRPRPRPDFWPRP	0.125
RRIRHRPPRLPRPRPRPKDHPRP	-0.274
RRIRKRPPRLPRPRPRPISFPRP	-0.1
RRIRERPPRLPRPRPRPPLQPRP	-0.176
RRIRCRPPRLPRPRPRPVGFPRP	0.0344
RRIRRRPPRLPRPRPRPKETPRP	0.17
RRIRWRPPRLPRPRPRPIRLPRP	-0.268
RRIRPRPPRLPRPRPRPKIHPRP	-0.427
RRIRRRPPRLPRPRPRPLFSPRP	-0.0439
RRIRRRPPRLPRPRPRPLPLPRP	0.0912
RRIRARPPRLPRPRPRPMGKPRP	0.472
RRIRRRPPRLPRPRPRPKPWPRP	0.274
RRIRTRPPRLPRPRPRPIHSPRP	-0.191
RRIRNRPPRLPRPRPRPEGQPRP	-0.00174
RRIRYRPPRLPRPRPRPWRGPRP	0.318

Sequence	shrunken log2 fold change
RRIRQRPPRLPRPRPRPLMGPRP	-0.121
RRIRNRPPRLPRPRPRPLFKPRP	-1.08
RRIRVRPPRLPRPRPRPMMMPRP	-0.0802
RRIRSRPPRLPRPRPRPNWFPRP	-0.0702
RRIRARPPRLPRPRPRPMQFPRP	0.091
RRIRPRPPRLPRPRPRPPLMPRP	0.199
RRIRIRPPRLPRPRPRPIHWPRP	-0.0782
RRIRCRPPRLPRPRPRPMISPRP	-0.235
RRIRERPPRLPRPRPRPRMKPRP	-0.243
RRIRRRPPRLPRPRPRPMHAPRP	1.49
RRIRHRPPRLPRPRPRPQYMPRP	-0.252
RRIRYRPPRLPRPRPRPRHAPRP	-0.0916
RRIRVRPPRLPRPRPRPCSCPRP	0.141
RRIRKRPPRLPRPRPRPPTRPRP	1.49
RRIRMRPPRLPRPRPRPDYQPRP	-0.304
RRIRQRPPRLPRPRPRPNWHPRP	0.141
RRIRGRPPRLPRPRPRPAMCPRP	0.465
RRIRERPPRLPRPRPRPRRHPRP	0.411
RRIRNRPPRLPRPRPRPNTDPRP	-0.249
RRIRARPPRLPRPRPRPGHPPRP	0.543
RRIRKRPPRLPRPRPRPTPVPRP	0.756
RRIRHRPPRLPRPRPRPWDQPRP	0.0769
RRIRCRPPRLPRPRPRPVTTPRP	-0.0492
RRIRGRPPRLPRPRPRPMRIPRP	2.34
RRIRERPPRLPRPRPRPVMCPRP	0.0654

Sequence	shrunken log2 fold change
RRIRLRPPRLPRPRPRPFDCPRP	0.00355
RRIRLRPPRLPRPRPRPNKQPRP	-0.0903
RRIRRRPPRLPRPRPRPCPEPRP	0.0178
RRIRMRPPRLPRPRPRPIWTPRP	0.12
RRIRWRPPRLPRPRPRPGHKPRP	-0.14
RRIRIRPPRLPRPRPRPAMAPRP	-0.237
RRIRPRPPRLPRPRPRPIDLPRP	-0.0858
RRIRVRPPRLPRPRPRPMGDPRP	-0.104
RRIRQRPPRLPRPRPRPFALPRP	-0.103
RRIRFRPPRLPRPRPRPDFIPRP	-0.395
RRIRGRPPRLPRPRPRPLKDPRP	0.125
RRIRKRPPRLPRPRPRPMKMPRP	0.473
RRIRRRPPRLPRPRPRPKVNPRP	0.468
RRIRPRPPRLPRPRPRPDKQPRP	0.0524
RRIRSRPPRLPRPRPRPWCEPRP	-0.291
RRIRGRPPRLPRPRPRPHYPPRP	-0.222
RRIRKRPPRLPRPRPRPTQQPRP	1.35
RRIRRRPPRLPRPRPRPLVFPRP	-0.0441
RRIRYRPPRLPRPRPRPSRTPRP	-0.342
RRIRARPPRLPRPRPRPLHGPRP	0.155
RRIRKRPPRLPRPRPRPWISPRP	0.0313
RRIRIRPPRLPRPRPRPDLTPRP	-0.00701
RRIRQRPPRLPRPRPRPPVNPRP	-0.0759
RRIRMRPPRLPRPRPRPAPAPRP	1.53
RRIRTRPPRLPRPRPRPYQMPRP	0.0528

Sequence	shrunken log2 fold change
RRIRCRPPRLPRPRPRPTWFPRP	0.141
RRIRIRPPRLPRPRPRPAVGPRP	0.455
RRIRFRPPRLPRPRPRPLARPRP	-0.0473
RRIRVRPPRLPRPRPRPLRWPRP	0.63
RRIRGRPPRLPRPRPRPTRAPRP	1.04
RRIRFRPPRLPRPRPRPFDVPRP	-0.247
RRIRIRPPRLPRPRPRPCHWPRP	-0.0328
RRIRNRPPRLPRPRPRPDNEPRP	0.114
RRIRYRPPRLPRPRPRPFPMPRP	-0.834
RRIRVRPPRLPRPRPRPNGDPRP	-0.187
RRIRRRPPRLPRPRPRPVRVPRP	0.791
RRIRFRPPRLPRPRPRPDAYPRP	-0.147
RRIRGRPPRLPRPRPRPKSKPRP	0.611
RRIRWRPPRLPRPRPRPVKRPRP	0.015
RRIRPRPPRLPRPRPRPVVDPRP	-0.107
RRIRCRPPRLPRPRPRPELQPRP	0.251
RRIRCRPPRLPRPRPRPTQGPRP	0.954
RRIRVRPPRLPRPRPRPSRVPRP	0.0356
RRIRGRPPRLPRPRPRPPGWPRP	1.04
RRIRMRPPRLPRPRPRPFCGPRP	-0.0687
RRIRPRPPRLPRPRPRPKIFPRP	-0.0976
RRIRWRPPRLPRPRPRPAADPRP	1.21
RRIRTRPPRLPRPRPRPQCNPRP	-0.0399
RRIRMRPPRLPRPRPRPVRFPRP	0.725
RRIRRRPPRLPRPRPRPSLHPRP	0.114

Sequence	shrunken log2 fold change
RRIRQRPPRLPRPRPRPVDTPRP	-0.183
RRIRSRPPRLPRPRPRPSLRPRP	-0.269
RRIRRRPPRLPRPRPRPAWHPRP	0.527
RRIRTRPPRLPRPRPRPKFMPRP	-0.0326
RRIRMRPPRLPRPRPRPIFHPRP	-0.00123
RRIRMRPPRLPRPRPRPYYQPRP	-0.856
RRIRFRPPRLPRPRPRPDHNPRP	-0.911
RRIRYRPPRLPRPRPRPFYEPRP	-1.2
RRIRERPPRLPRPRPRPGKYPRP	-0.17
RRIRDRPPRLPRPRPRPTTRPRP	0.542
RRIRKRPPRLPRPRPRPCDDPRP	-0.0472
RRIRCRPPRLPRPRPRPSAVPRP	-0.0828
RRIRVRPPRLPRPRPRPGHQPRP	-0.0671
RRIRDRPPRLPRPRPRPKSCPRP	-0.0117
RRIRIRPPRLPRPRPRPGPLPRP	-0.00626
RRIRKRPPRLPRPRPRPQPEPRP	0.7
RRIRYRPPRLPRPRPRPIEVPRP	-0.217
RRIRMRPPRLPRPRPRPRSNPRP	0.13
RRIRSRPPRLPRPRPRPNFPPRP	0.0832
RRIRRRPPRLPRPRPRPMWDPRP	0.164
RRIRLRPPRLPRPRPRPALVPRP	-0.0636
RRIRGRPPRLPRPRPRPACRPRP	0.549
RRIRKRPPRLPRPRPRPIQQPRP	0.25
RRIRERPPRLPRPRPRPAKNPRP	-0.0998
RRIRNRPPRLPRPRPRPLFLPRP	-0.547
